Experimental data: US20250213715A1, “ANTI-CSPG4 BINDING AGENTS, CONJUGATES THEREOF AND METHODS OF USING THE SAME” (Ardeagen Corporation, priority 2020, published 2025)

Tests used:
[1] = target: T1, CSPG4 (chondroitin sulfate proteoglycan 4) on human tumor cell lines (human, UniProt Q6UVK1 30-2322); test: flow cytometry on Malme-3M melanoma cells, 8-point dose curve, anti-hIgG-AF488
T1 construct: Endogenous CSPG4 on human cell lines (A2058, Malme-3M, A375, SW1353, NCI-H2052); also called HMW MAA; MCSP
T1 sequence (Q6UVK1 30-2322 limits assumed): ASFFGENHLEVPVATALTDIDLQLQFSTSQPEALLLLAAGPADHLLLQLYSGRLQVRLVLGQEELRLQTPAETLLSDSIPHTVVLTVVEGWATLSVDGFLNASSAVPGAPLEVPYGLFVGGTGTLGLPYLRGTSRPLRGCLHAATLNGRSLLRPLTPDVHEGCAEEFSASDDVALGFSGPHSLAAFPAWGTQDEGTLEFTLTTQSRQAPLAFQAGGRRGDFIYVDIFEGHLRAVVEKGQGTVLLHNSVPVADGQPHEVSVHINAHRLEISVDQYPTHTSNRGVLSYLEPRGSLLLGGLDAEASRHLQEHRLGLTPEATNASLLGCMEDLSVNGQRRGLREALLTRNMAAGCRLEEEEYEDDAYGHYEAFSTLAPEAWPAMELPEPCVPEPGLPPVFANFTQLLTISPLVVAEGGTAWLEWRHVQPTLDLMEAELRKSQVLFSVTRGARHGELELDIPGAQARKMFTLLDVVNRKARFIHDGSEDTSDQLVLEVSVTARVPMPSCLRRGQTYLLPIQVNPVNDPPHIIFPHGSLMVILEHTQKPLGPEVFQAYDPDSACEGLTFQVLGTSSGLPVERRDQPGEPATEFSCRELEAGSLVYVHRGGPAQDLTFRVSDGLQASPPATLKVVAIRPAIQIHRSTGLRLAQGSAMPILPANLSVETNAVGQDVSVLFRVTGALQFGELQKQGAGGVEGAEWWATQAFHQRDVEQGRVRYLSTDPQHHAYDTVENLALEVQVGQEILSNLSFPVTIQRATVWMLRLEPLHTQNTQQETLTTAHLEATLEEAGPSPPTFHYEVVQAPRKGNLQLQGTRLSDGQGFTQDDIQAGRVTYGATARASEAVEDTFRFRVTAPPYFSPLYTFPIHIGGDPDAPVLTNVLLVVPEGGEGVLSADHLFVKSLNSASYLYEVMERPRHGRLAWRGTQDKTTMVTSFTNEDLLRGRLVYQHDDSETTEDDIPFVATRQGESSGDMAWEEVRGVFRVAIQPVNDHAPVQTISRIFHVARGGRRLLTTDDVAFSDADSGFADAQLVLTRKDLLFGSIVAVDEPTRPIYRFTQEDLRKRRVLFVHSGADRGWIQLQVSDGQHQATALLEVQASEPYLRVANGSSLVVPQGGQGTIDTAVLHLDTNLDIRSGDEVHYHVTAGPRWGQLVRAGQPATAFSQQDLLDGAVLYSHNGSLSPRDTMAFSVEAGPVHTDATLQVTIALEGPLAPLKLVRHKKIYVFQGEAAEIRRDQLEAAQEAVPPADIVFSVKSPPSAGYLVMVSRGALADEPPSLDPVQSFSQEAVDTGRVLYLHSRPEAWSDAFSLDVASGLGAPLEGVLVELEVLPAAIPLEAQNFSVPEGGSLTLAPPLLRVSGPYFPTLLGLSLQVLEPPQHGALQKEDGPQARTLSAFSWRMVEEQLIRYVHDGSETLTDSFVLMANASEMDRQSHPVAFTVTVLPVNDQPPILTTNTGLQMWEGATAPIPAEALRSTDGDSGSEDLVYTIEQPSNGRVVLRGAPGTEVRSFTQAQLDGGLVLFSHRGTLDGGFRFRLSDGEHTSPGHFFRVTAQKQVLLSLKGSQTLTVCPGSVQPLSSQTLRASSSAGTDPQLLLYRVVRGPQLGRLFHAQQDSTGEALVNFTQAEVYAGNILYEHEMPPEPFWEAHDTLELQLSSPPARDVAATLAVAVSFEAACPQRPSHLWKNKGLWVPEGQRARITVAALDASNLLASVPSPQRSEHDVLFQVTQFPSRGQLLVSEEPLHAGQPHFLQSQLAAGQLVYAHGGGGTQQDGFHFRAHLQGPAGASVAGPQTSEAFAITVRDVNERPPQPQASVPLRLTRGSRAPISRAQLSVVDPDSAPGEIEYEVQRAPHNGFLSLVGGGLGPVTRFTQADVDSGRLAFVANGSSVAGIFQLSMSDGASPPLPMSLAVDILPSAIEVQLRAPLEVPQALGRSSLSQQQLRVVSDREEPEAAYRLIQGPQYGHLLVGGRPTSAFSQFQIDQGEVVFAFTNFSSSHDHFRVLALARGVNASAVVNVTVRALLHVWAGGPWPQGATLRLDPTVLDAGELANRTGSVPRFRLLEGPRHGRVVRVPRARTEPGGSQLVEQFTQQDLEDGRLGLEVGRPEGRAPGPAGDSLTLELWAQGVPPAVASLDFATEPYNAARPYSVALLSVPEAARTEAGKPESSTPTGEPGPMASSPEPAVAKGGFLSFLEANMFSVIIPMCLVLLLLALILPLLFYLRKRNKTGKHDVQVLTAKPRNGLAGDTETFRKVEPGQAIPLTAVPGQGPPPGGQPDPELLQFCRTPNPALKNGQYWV
Method: (§1) Flow Cytometry—Cells were rinsed with PBS (phosphate buffered saline, pH 7.4) and harvested with Versene (Thermo Fisher) prior to incubation with FACs buffer (PBS+1% fetal bovine serum (FBS; source BioSun) containing test antibody or ADCs for 1 h at 4° C. Cells were rinsed and washed with FACs buffer (PBS+1% FBS) and detection was performed with anti-bigG-AF488. Cells were analyzed on a FACs Canto II (BD Biosciences). Quantitative FACs (qFACs) was performed to measure the number of antigen binding sites with the DAKO QifiKit (DAKO, Carpinteria, CA), according to the manufacturer's directions.
(§2) FACs binding of ARD107 antibody and corresponding conjugates to CSPG4-positive cell lines was conducted. The melanoma A2058 and Malme-3M, the SW1353 chondrosarcoma, and the NCI-H1975 lung cell lines were incubated with increasing concentrations (8-point dose curve) of the antibody, conjugates (ARD107-vcMMAE or ARD107-SN38 (ARD107-CL2A-SN-38)), or isotype control (hIgG1) for 1 hr at 4° C. Detection was done with an anti-hIgG-AF488 secondary antibody.

[2] = target: T1, CSPG4 (chondroitin sulfate proteoglycan …); test: flow cytometry on A2058 melanoma cells, 8-point dose curve, anti-hIgG-AF488
Method: as §1, §2

[3] = target: T1, CSPG4 (chondroitin sulfate proteoglycan …); test: flow cytometry on SW1353 chondrosarcoma cells, 8-point dose curve, anti-hIgG-AF488
Method: as §1, §2

[4] = target: T1, CSPG4 (chondroitin sulfate proteoglycan …); test: flow cytometry on NCI-H2052 lung cells, 6-point dose curve, anti-hIgG-AF488
Method: as §1
(§3) The CSPG4+A2058 and A375 melanoma and the lung NCI-H2052 and NCI-H1975 cell lines were incubated with increasing concentrations of the antibody (6-point dose curve) for 1 hr at 4° C. Detection was done with an anti-hIgG-AF488 secondary antibody.
(§4) The data were graphed and estimated binding constants (EC50 in table) were determined with Prism (GraphPad Software, San Diego, CA).

[5] = target: T1, CSPG4 (chondroitin sulfate proteoglycan …); test: flow cytometry on A2058 melanoma cells, 6-point dose curve, anti-hIgG-AF488
Method: as §1, §3, §4

[6] = target: T1, CSPG4 (chondroitin sulfate proteoglycan …); test: flow cytometry on A375 melanoma cells, 6-point dose curve, anti-hIgG-AF488
Method: as §1, §3, §4

B1: ARD107 antibody (antibody, human IgG1, kappa, V domains shown)
VH: EVQLQESGPGLVKPSQSLSLTCSVTGYSITSGYYWNWIRQFPGNKLEWMGYITYDGSNNYNPSLKNRISITRDTSKNQFFLKLNSVTTEDTATYYCADFDYWGQGTTLTVSS
VL: DIVLTQSPSSLSASLGDRVTISCSASQGIRNYLNWYQQRPDGTVKLLIYYTSSLHSGVPSRFSGSGSGTDYSLTISNLEPEDIATYYCQQYSKLPWTFGGGTKLEIKR
notes: also called unconjugated ARD107 monoclonal antibody
For B1, the EC50 [1] was 590 pM, the EC50 [2] was 480 pM and the EC50 [3] was 210 pM. For the same binder, the EC50 [4] was 300 pM, the EC50 [5] was 240 pM and the EC50 [6] was 190 pM.
